In the RNAGym collection of RNA variant scans (doi:10.1073/pnas.2313332121):

B1: TPR t1 (parent)
chain: GACCAAUCUGCCCUCAGAGCUCGAGAACAUCUUCGGAUGCAGAGGAGGCAGGCUUCGGUGGCGCGAUAGCGCCAACGUCCUCAACCUCCAAUGCAUCCCACCACAUGAUGAUGCCUGAAGAGCCUUGGUUUUUUG

Variants of: B1
Experiment: polymerase ribozyme fitness, log enrichment relative to wild type (log ratio); higher = more active; in vitro selection for triplet polymerase activity
Outline: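 After PCR construction and transcription, each subunit's mutant library from a heterodimeric triplet polymerase ribozyme was annealed with a biotinylated primer, the partner subunit and triplets. Incubation was frozen, at −7 °C, and extended constructs were gel-excised, bound to streptavidin beads and amplified by RT-PCR, in one selection round done in triplicate. Fitness is the logarithm of a genotype's enrichment divided by that of the wild type, from inverse-variance-weighted replicate averages of Illumina-sequenced inputs and outputs. The base of the logarithm is 2, and genotypes needed ≥10 input reads and ≥1 read per output.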

| Variant | polymerase ribozyme fitness (log ratio) |
| --- | --- |
| C4U G60A C86U G93A G117A U133A | -3.03 |
| C4U A6U U78G C88U A91U A95U | -3.57 |
| C4G C72A C85G C104U | -2.16 |
| A5C C13U A46C C64U U78A C79G G113C | -5.7 |
| C4U G69C C97U G122A | -2.49 |
| C4U A100U | -1.08 |
| C4U C13U G42U U55C G71A | -2.58 |
| C4U A5G U38A C70U G120A | -1.12 |
| C4U G44U C72A | -0.827 |
| A5C C12A G61U G113C | -2.74 |
| C4G C8G U81A A111C | -2.27 |
| C4U A27U C64U A95C A111C A118G | -6.19 |
| A5C A50U G69A U81A A121C | -1.62 |
| A5C G58A C89A C94G C101U | -5.27 |
| C4U G71U C114G U132A | -3.02 |
| A5C G10C A43C C124G | -1.41 |
| C4G G71U C115U | -3.28 |
| A5C G48U C49A C94A | -2.25 |
| A5C U14C G60U A100C G135U | -4.82 |
| C4U C12A C53A C56U C89G A121G | -1.89 |
| A5C U96A A121C | 0.399 |
| C4U C79A U92C | -3.5 |
| C4U C56A C114A C124U | -3.31 |
| C4G G52A C72U A91U A119U | -4.02 |

| Variant | polymerase ribozyme fitness (log ratio) |
| --- | --- |
| A5C G60A C89G G93A A111G | -4.73 |
| C4U G48A G71U U106A | -1.2 |
| A5C G71U A75U C98U | -1.25 |
| C4U G71A U87A C97U | -1.86 |
| A5C C13U C79A C114A | -2.82 |
| C4U C15G C28U A121G | -2.9 |
| A5C C8A C12U U54A C56U G63U C98G | -7.29 |
| C4U A41G C62A A84C C115U | -4.65 |
| C4U G51A G61U C82G C88U G93C | -5.15 |
| C4U G113A | -1.15 |
| C4U A43C G45A G69U C124A | 0.59 |
| A5C C12A A43G G60C | -4.18 |
| C4U C15A G45C G61U C72A | -2.72 |
| A5C A46C C56A C102U | -3.74 |
| C4G U9G U116C G128U U131C | -0.342 |
| C4G U92C | -3.05 |
| C4U A75G C76A G77U | -2.12 |
| A5C C40G | -1.78 |
| A5C C40U | -1.31 |
| A5C G17U A50C C88A | -4.51 |
| C4U A43C G45A A74U C124A | -2.29 |
| A5C C115A | -0.966 |
| C4U G10A C11G G69U | -0.117 |
| A5C G117U | -3.58 |

| Variant | polymerase ribozyme fitness (log ratio) |
| --- | --- |
| A5C A24G G48U G69U G110A C124U U131C | -2.03 |
| A5C G17A G127U | -4.89 |
| C4U A6C G48U G69U C86U C88A G113C | -3.07 |
| C4G U9G A43U | -1.6 |
| C4U G10U | -0.515 |
| C4U G63A U116G A121U G127U | -4.48 |
| C4G G60U | -1.18 |
| C4G G60A | -1.91 |
| C4G U9C A43G G47A C73A | -2.93 |
| C4G C73A | -1.43 |
| C4G C13G C49A G60A | -4.79 |
| C4U C20A A111G | -4.75 |
| C4U C20A A111U | -2.94 |
| C4G C53A C56U C99U U130G | -5.15 |
| A5C C72U | -1.39 |
| C4U C12G C49G A95U A111G | -1.16 |
| C4U C70U C85G C86U | -2.03 |
| C4G G63U C123A | -1.09 |
| C4U C8G G36U U38A G44U C73A C124A | -4.82 |
| C4U A5C G57C A68U C73U C115U C124U | -6.74 |
| A5C A24G G48U G110A C124U U131C | -4.58 |
| C4U G52U G128C U131A | -3.4 |
| A5C C22A G69U C80U C114A | -1.41 |
| C4G C12A G45A G71U A100U U106A | -2.68 |

| Variant | polymerase ribozyme fitness (log ratio) |
| --- | --- |
| A5C U9C C13U | -0.074 |
| A5C C22A C88G | -5.51 |
| C4G G120C | -1.15 |
| C4G G120A | -0.396 |
| C4G C13U C20G A27U G71U U106A U125G | -5.01 |
| C4U C70U G77C | -1.36 |
| C4G C15U G47C C73U A105U G107U C123G U126A | -7.47 |
| C4G C73U U92C | -2.66 |
| C4U G52U G128U | -2.66 |
| C4U U9G C11A C72U A74U U106A | -0.724 |
| C4U C13A C53U | -2.94 |
| C4U G47A C56U C70A C101U A119G G120U G127A | -3.88 |
| C4U G36C G63A G69U G120A G127A | -0.365 |
| C4U U38G C49A C53U C73U | -2.53 |
| A5C C8A C28U U54C A84G | -3.62 |
| C4U C53A C64U C88A C123U G127U U131G | -1.35 |
| C4G G10U G63U G69U G120A | 0.883 |
| C4U G10U C70G | -4.35 |
| C4U G60U U92A U96C | -3.48 |
| C4G C8U C15A G44U G61A | -4.85 |
| C4G C13U C31G C34G G63A C79U G113U | -7.83 |
| C4U G47U U112C | -0.0324 |
| A5C U9A C13U A74C G110C C123A | -5.77 |
| C4U C22U | -4.42 |

| Variant | polymerase ribozyme fitness (log ratio) |
| --- | --- |
| A5C C13U | -0.876 |
| C4G C8U C72A U78A U87A | -2.03 |
| C4U G60A | -0.911 |
| A5C G69U A90U | -0.485 |
| C4U C8G C28A G35U G48C C49G C64U C88U A103G A111U | -6.13 |
| C4U G44U | -1.74 |
| A5C G45U G93A A121U | -0.00844 |
| A5C A43C G45A C56A A91G G113A | -4.37 |
| A5C C56G C79A U106A | -2.63 |
| C4U C40U C62A | -2.28 |
| C4G U9G G10C | -0.357 |
| C4G G47A | -2.34 |
| C4U C53U G69A U78A C86U | -3.99 |
| C4U U9G A103U C124G | -3.47 |
| A5C U7C G69U C85A U92C | -3.85 |
| C4U A27G C62A | -4.35 |
| A5C G17A A41G C53A C56A C70U G71A U112C | -6.41 |
| A5C C56U C73A C115G G117A | -7.51 |
| C4G G36U | -2.8 |
| C4U A75U A95C U96A G120A | -1.94 |
| C4G C56U | -1.92 |
| C4G U9A C89A C115A G117C | -4.91 |
| C4U G10A U21A G44A A83U | -1.59 |
| C4U C15U C72G C99U G120A | -4.79 |

| Variant | polymerase ribozyme fitness (log ratio) |
| --- | --- |
| C4U G10C G69U U125A | -2.15 |
| C4U G17C G69U | -2.09 |
| C4U A74G C89G U112G | -2.61 |
| A5C U92G | -4.05 |
| C4U C88A | -0.437 |
| A5C C15G G57U | -3.53 |
| C4G C28A C40G G48U C49G G63A U96G C114G U116G | -6.86 |
| C4G C13G C49A G60A C62U | -4.62 |
| A5C C12A U96C G128C | -2.92 |
| A5C G17A G36U | -5.9 |
| A5C A27C | -3.97 |
| C4U A43U G63C G93A | -3.29 |
| C4U A41U U112A G113C G122C | -2.19 |
| A5C C53U | -1.88 |
| C4U C15U A18G G113A | -3.08 |
| C4U G45C | -2.12 |
| C4G C104U | -0.878 |
| C4G C80A | -3.83 |
| C4U C70A A121C U131A | -0.259 |
| C4U U7G A27U A119G | -1.81 |
| C4U G120A | 0.077 |
| A5C G60A G61A C114A | -4.47 |
| A5C A46U U106C | -1.72 |
| A5C C53G C64U C94U | -1.07 |

| Variant | polymerase ribozyme fitness (log ratio) |
| --- | --- |
| C4G C8U A18U A43U U81A | -2.85 |
| A5C G10A C34A C123U | -0.78 |
| C4U G52U C73A | -0.845 |
| A5C U7C G57U C99U U112A | -3.19 |
| C4U G10U G52U C88G C123U | -0.494 |
| C4U U14C G60A A75U | -3.07 |
| C4U C49U A66G | -2.3 |
| A5C C73G | -0.545 |
| C4U A43U C70U | -3.47 |
| C4G C12U | -2.1 |
| C4U G71A G77A | -2.96 |
| C4U G48U C56G U78A C98U U112G G135A | -4.14 |
| C4U U96A | -1.6 |
| C4G G61U A66U C94A C123U U132A | -1.51 |
| C4U C114G | -2.65 |
| C4U C12A G44A U116A | -6.42 |
| C4G C11G C49A G51C G58A C73U C79U | -4.64 |
| C4U A43U G69C | -4.04 |
| A5C G63U | -1.6 |
| C4U C22G A43U G48U C49U C97U | -4.83 |
| C4G U55C C72U C94G | -3.35 |
| C4U G48U G52U C73U A90U C124G | -2.07 |
| C4G C102A | -3.83 |
